Laboratory results from patent US20160053022A1 (PETER MACCALLUM CANCER INSTITUTE, published 2016).

How the values were obtained:
hRYKWD.Fc [1] = molecular target: T1, hRYKWD.Fc (human, UniProt P34925 66-194, limits assumed); test: SPRi (ProteOn XPR36, GLC chip), RWD1 immobilized, hRYKWD.Fc injected at 31.25-500 nM, 25 °C; calculated from ka and kd
T1 construct: domain: WIF domain; also called hRYKWD.Fc.FLAG; fusion protein containing the human RYK WIF domain; not shown: Fc region of human IgG1
Procedure: (§1) RYK binding was determined by ELISA as described previously (Davydova N, et al., 2011, J Mol Biol 407: 581-593), using bound RWD1 and probed with purified hRYK.Fc. All SPRi analyses were performed at 25° C. using HBST (10 mM HEPES, pH 7.4, 150 mM NaCl, 0.05% (v/v) Tween-20) as the running buffer. A ProteOn XPR36 SPRi biosensor, GLC sensor chips and coupling reagents (10 mM sodium acetate, pH 4.5; sulfo-N-hydroxysuccinimide (SNHS); 1-ethyl-3-(3-dimethylaminopropyl)-carbodiimide hydrochloride (EDC); and ethanolamine) were purchased from Bio-Rad Laboratories. All antibodies and ligands used for kinetic analysis were buffer exchanged with PBS. Immobilizations were performed at 30 μl/min on the GLC chip. Prior to immobilization, chips were preconditioned with two sequential 10 sec pulses of 50 mM NaOH, 100 mM HCl and 0.5% SDS, followed by equilibration with HBST. For surface activation, 0.4 M EDC and 0.1 M SNHS were each diluted 50-fold in water and mixed together to give a final composition of 8 mM EDC in 2 mM SNHS. Separate vertical channels were activated with 150 μl of the EDC/SNHS mixture. IgGs for immobilization (RWD1 antibody and normal human IgG (R&D Systems; control)) were diluted to 50 μg/ml in 10 mM acetate, pH 4.5, and coupled (3×150 μl) along separate vertical channels followed by an injection of ethanolamine (150 μl) to block the reaction spots. […]

hRYKWD.Fc [2] = molecular target: T1, hRYKWD.Fc; test: SPRi (ProteOn XPR36, GLC chip), RWD1 immobilized, hRYKWD.Fc injected at 31.25-500 nM, 25 °C, global 1:1 Langmuir fit with mass transfer
Procedure: as §1

hRYK.Fc = molecular target: T2, hRYK.Fc (human, UniProt P34925 26-227); test: ELISA: immobilized RWD1 probed with hRYK.Fc; the concentration on the axis is that of the RWD1 used for immobilization, the hRYK.Fc concentration of this graph is not given
T2 construct: extracellular domain; also called hRYK.Fc.FLAG; FLAG-tagged hRYK.Fc; not shown: Fc
Procedure: Purified RWD1 antibody (20 μg) was used in immunoprecipitation experiments, to determine its ability to inhibit hRYK.Fc binding to Wnt3a.Myc5 or Wnt5a.Myc5 (10 μg and 20 μg, respectively; of transfected HEK293T cell lysate). Immunoprecipitations (IP) were performed to pull down hRYK.Fc (250 ng), then immunoblotted (IB) with an anti-Myc tag antibody to detect Wnt binding. Molecular mass standards are shown at the left in kDa. IgG, normal human IgG. (B) ELISA results of immobilized RWD1 antibody probed with hRYK.Fc protein. […] Results represent the mean±standard deviation of two to three independent experiments. IgG, normal human IgG; OD, optical density.
RYK binding was determined by ELISA as described previously (Davydova N, et al., 2011, J Mol Biol 407: 581-593), using bound RWD1 and probed with purified hRYK.Fc. All SPRi analyses were performed at 25° C. using HBST (10 mM HEPES, pH 7.4, 150 mM NaCl, 0.05% (v/v) Tween-20) as the running buffer. A ProteOn XPR36 SPRi biosensor, GLC sensor chips and coupling reagents (10 mM sodium acetate, pH 4.5; sulfo-N-hydroxysuccinimide (SNHS); 1-ethyl-3-(3-dimethylaminopropyl)-carbodiimide hydrochloride (EDC); and ethanolamine) were purchased from Bio-Rad Laboratories. All antibodies and ligands used for kinetic analysis were buffer exchanged with PBS. Immobilizations were performed at 30 μl/min on the GLC chip. […]

T1 sequence (P34925 66-194 limits assumed): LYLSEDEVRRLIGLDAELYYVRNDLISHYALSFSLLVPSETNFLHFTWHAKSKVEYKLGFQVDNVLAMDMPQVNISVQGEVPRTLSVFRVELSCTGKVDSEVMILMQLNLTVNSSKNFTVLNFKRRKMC
T2 sequence (P34925 26-227): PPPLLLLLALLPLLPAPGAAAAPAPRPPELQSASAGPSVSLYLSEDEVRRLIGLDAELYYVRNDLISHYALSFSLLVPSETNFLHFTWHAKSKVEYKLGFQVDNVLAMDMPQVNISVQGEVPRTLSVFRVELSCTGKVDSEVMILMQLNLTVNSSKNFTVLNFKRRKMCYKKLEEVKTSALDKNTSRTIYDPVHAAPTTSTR

Kd (hRYKWD.Fc [1]): 4.2 nM | koff (hRYKWD.Fc [2]): 0.00037 s⁻¹ | kon (hRYKWD.Fc [2]): 88000 M⁻¹ s⁻¹ | EC50 (read off the curve) (hRYK.Fc): ~5 µg/mL
B1: RWD1 (antibody, human IgG1, kappa, V domains shown)
VH: EVQLLESGGGLVQPGGSLRLSCAASGFTFSSYAMSWVRQAPGKGLEWVSLIHKAGHTTQYADSVKGRFTISRDNSKNTLYLQMNSLRAEDTAVYYCAKGYRHFDYWGQGTLVTVSS
VL: DIQMTQSPSSLSASVGDRVAITCRASQSISSYLNWYQQKPGKAPKLLIYRASNLQSGVPSRFSGSGSGTDFTLTISSLQPEDFATYYCQQAVGSPRTFGQGTKVEIKR
notes: Variable regions of scFv3 grafted onto a human IgG1 gamma heavy chain and human kappa light chain; fully human monoclonal antibody; also called RWD1 antibody
